# Results taken from PMC4116807 (Biochimica et biophysica acta, 2014).
# B1: periplasmic sensor domain of the histidine kinase CusS (CusS 39-187) (domain or fragment, Escherichia coli W3110)
# chain: VKVHFAEQDINDLKEISATLERVLNHPDETQARRLMTLEDIVSGYSNVLISLADSQGKTVYHSPGAPDIREFTRDAIPDKDAQGGEVYLLSGPTMMMPGHGHGHMEHSNWRMINLPVGPLVDGKPIYTLYIALSIDFHLHYINDLMNKLEGSS
# Molecular target: the molecule itself
# Assay: AUC
protein,measurement,value
B1,stoichiometry N,2
